In the series the target is integrin αV/β5 (Homo sapiens, UniProt P06756+P18084). Put plainly: Differential HDX/MS of irisin and integrin αV/β5. The format is binding. Particulars: 10 μM irisin, 30 μM integrin αV/β5. On the procedure: Differential HDX-MS experiments were conducted as previously described with a few modifications (Chalmers et al. (2006) Anal. Chen. 78:1005-1014).
Protein samples were injected for inline pepsin digestion and the resulting peptides were identified using tandem MS (MS/MS) with an Orbitrap™ mass spectrometer (Fusion Lumos, ThermoFisher). Following digestion, peptides were desalted on a C8 trap column and separated on a 1 hour linear gradient of 5-40% B (A is 0.3% formic acid and B is 0.3% formic acid 95% CH3CN). Product ion spectra were acquired in data-dependent mode with a one second duty cycle such that the most abundant ions selected for the product ion analysis by higher-energy collisional dissociation between survey scan events occurring once per second. Following MS2 acquisition, the precursor ion was excluded for 16 seconds. […]
HDX-MS analysis: Apo proteins (irisin and integrin αV/β5) were analyzed at 10 μM each. […] The intensity weighted mean m/z centroid value of each peptide envelope was calculated and subsequently converted into a percentage of deuterium incorporation. […] Statistical significance for the differential HDX data was determined by an unpaired t-test for each time point, a procedure that was integrated into the HDX Workbench software (Pascal et al. (2012) J Am. Soc. Mass Spectrom. 23:1512-1521). […]

Sequence of integrin αV/β5 (P18084 24-719 limits assumed): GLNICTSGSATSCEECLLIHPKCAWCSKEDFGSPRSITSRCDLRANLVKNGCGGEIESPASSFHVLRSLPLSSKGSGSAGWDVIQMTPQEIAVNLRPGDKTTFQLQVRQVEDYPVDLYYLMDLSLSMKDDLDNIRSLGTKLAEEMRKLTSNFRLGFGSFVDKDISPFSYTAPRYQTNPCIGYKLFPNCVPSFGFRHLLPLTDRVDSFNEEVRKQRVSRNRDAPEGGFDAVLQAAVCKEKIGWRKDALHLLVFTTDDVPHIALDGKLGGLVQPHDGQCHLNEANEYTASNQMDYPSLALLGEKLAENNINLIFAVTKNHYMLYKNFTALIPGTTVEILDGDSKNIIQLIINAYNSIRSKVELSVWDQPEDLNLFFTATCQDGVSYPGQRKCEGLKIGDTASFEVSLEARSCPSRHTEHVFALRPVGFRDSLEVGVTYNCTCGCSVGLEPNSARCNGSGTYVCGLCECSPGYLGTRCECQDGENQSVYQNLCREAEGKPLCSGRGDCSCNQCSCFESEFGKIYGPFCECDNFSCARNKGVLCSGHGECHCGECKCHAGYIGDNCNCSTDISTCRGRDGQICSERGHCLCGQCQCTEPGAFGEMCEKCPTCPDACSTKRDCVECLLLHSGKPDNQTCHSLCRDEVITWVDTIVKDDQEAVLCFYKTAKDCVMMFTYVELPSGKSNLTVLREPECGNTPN
Sequence of integrin αV/β5 (P06756 31-889 limits assumed): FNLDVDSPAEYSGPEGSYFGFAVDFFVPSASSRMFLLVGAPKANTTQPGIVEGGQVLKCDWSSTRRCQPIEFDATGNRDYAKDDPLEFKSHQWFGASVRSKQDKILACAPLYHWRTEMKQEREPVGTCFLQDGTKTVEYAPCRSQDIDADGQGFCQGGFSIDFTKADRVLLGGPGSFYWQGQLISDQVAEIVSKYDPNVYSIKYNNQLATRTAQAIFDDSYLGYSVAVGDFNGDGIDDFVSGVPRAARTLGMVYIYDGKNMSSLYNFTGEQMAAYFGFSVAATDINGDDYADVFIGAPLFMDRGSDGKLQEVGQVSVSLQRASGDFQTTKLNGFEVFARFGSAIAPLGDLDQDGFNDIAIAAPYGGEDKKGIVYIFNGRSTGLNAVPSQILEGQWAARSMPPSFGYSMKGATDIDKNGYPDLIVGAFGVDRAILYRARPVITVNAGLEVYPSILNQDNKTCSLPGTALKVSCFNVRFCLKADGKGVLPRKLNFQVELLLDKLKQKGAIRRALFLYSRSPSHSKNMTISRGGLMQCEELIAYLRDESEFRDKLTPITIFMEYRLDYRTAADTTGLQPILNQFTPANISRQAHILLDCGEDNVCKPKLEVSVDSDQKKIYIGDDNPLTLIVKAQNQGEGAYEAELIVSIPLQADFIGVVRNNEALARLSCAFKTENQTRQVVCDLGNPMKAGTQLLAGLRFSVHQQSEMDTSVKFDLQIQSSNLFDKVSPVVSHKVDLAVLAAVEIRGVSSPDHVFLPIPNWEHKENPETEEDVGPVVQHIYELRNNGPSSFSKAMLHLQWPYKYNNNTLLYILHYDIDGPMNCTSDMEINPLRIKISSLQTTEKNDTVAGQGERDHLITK
Sequence of integrin αV/β5 (P06756 891-992 partner limits assumed): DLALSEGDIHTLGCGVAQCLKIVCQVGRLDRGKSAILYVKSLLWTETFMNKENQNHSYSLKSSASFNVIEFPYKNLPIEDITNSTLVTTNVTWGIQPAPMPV

B1: irisin: secreted cleaved form of FNDC5; recombinant human/mouse irisin with C-terminal his tag produced in HEK293 cells (protein)
chain: DSPSAPVNVTVRHLKANSAVVSWDVLEDEVVIGFAISQQKKDVRMLRFIQEVNTTTRSCALWDLEEDTEYIVHVQAISIQGQSPASEPVLFKTPREAEKMASKNKDEVTMKE
modifications: left off: small tags and cut ends
notes: secreted cleaved form of FNDC5; recombinant human/mouse irisin with C-terminal his tag produced in HEK293 cells
Consider B1, for which the “direct interaction with integrin αV/β5 (HDX/MS)” value is “directly binds integrin αV/β5”.

Source of the values: patent publication US20210063414A1, “METHODS FOR PREVENTING AND/OR TREATING BONE LOSS CONDITIONS BY MODULATING IRISIN” (Dana-Farber Cancer Institute, Inc., priority 2018, published 2021).
